What all share (assay): SPR; biotinylated phosphopeptides immobilised on streptavidin chip (about 25 RU single, 50 RU tandem motifs); soluble recombinant protein injected; 37°C; HBS-EP; equilibrium binding (Table 4; same-day purification not given)
In general terms: SPR reads the build-up and loss of mass on a sensor chip optically.

Assay [1] has as its target CD244 ITSM2 phosphopeptide (human).
Assay [2] deals with CD244 ITSM3 phosphopeptide (human).
For assay [3], the target named is CD244 ITSM4 phosphopeptide (human).

These results are taken from publication PMC3958483, “Fine Specificity and Molecular Competition in SLAM Family Receptor Signalling” (PLoS ONE, 2014).

Usually Kd stands for the equilibrium constant for the complex coming apart.

B1: SHP-2 N-terminal + C-terminal (N+C) SH2 domains (domain or fragment)
chain: TSRRWFHPNITGVEAENLLLTRGVDGSFLARPSKSNPGDFTLSVRRNGAVTHIKIQNTGDYYDLYGGEKFATLAELVQYYMEHHGQLKEKNGDVIELKYPLNCADPTSERWFHGHLSGKEAEKLLTEKGKHGSFLVRESQSHPGDFVLSVRTGDDKGESNDGKSKVTHVMIRCQELKYDVGGGERFDSLTDLVEHYKKNPMVETLGTVLQLKQPLNTT
In the case of B1, the Kd in assay [1] was determined as 24000 nM.

B2: SHIP SH2 (SH2 domain from human SHIP-1) (domain or fragment)
chain: WNHGNITRSKAEELLSRTGKDGSFLVRASESISRAYALCVLYRNCVYTYRILPNEDDKFTVQASEGVSMRFFTKLDQLIEFYKKENMGLVTHLQYPV
Regarding B2, the Kd is 2300 nM in assay [1], 2200 nM in assay [2] and 5600 nM in assay [3].

B3: EAT-2 (recombinant full-length human EAT-2) (natural protein)
chain: MDLPYYHGRLTKQDCETLLLKEGVDGNFLLRDSESIPGVLCLCVSFKNIVYTYRIFREKHGYYRIQTAEGSPKQVFPSLKELISKFEKPNQGMVVHLLKPIKRTSPSLRWRGLKLELETFVNSNSDYVDVLP
Take B3: the Kd in assay [1] worked out at 60 nM; in assay [2], 70 nM; in assay [3] it was 40 nM.
